# Target: T1, recombinant Streptomyces antibioticus tyrosinase (Streptomyces antibioticus, UniProt P07524)
# T1 construct: expressed in transfected cells; host or cells: E. coli XL1-Blue co-transformed with pDIM-NY (pDIMN-Y) and pARCP-p or pARCP2-6H
# T1 sequence (P07524 whole entry, looked up): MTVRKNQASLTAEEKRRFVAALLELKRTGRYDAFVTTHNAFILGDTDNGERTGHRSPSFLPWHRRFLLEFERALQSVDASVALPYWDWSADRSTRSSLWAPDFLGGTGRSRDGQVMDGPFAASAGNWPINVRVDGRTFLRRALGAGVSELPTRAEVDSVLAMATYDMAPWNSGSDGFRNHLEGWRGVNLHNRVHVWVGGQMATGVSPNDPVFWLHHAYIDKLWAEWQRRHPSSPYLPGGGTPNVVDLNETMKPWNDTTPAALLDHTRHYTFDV
# Experiment: In vivo assay on FeCuY plates to detect tyrosinase inhibition (pigment formation) by co-expressed cyclic peptide
# Format: cell-based, Escherichia coli XL1-Blue
# Settings: co-expression in tyrosinase expressing XL1-Blue cells on FeCuY plates, L-(+)arabinose (0.5%) induction
# Source text: FIG. 7 is a photograph of FeCuY plates used in an in vivo assay to detect tyrosinase inhibition by pseudostellarin F.
# The tyrosinase gene (including ORF 438) from Streptomyces antibioticus (Berman et al, Gene 37:101, 1985) was amplified with Vent-polymerase from pIJ702 (ATCC no. 35287) with primers introducing 5′
# Ndel and 3′ EcoRI restriction sites. The PCR product was digested with Ndel and EcoRI and ligated into similarly digested pDIMN2 (Ostermeier et al, supra) to generate pDIMN-Y. Transformed ligation mixtures were grown at ambient temperature for 5 days, and colonies that expressed tyrosinase were identified by pigment formation on FeCuY plates [LB agar plates containing ampicillin (200 ug/ml), FeCI3.6H2O (0.2 mM), CuS04.5H2O (0.2 mM), L-tyrosine (0.3 mg/ml, Y) and isopropyl-B-D-galactoside (1 mM)] (Della-Cioppa, G. et al., Biotechnology 8:634, 1990).
# Pseudostellarin F production was readily detected in vivo through inhibition of recombinant Streptomyces antibioticus tyrosinase (FIG. 7). In the experiment shown in FIG. 7, XLI-Blue cells were co-transformed with pDIM-NY and either pARCP2-6H (a & b) or pARCP-p (c & d). The cells were plated on FeCuY plates with chloramphenicol (50 ug/ml), either without (a & c) or with (b & d) L-(+)arabinose (0.5%).
row,Substance,tyrosinase inhibition (pigment formation)
1,"cyclo-[CHMHHHHHHGAGAA] (backbone cyclized) [cyclic peptide from pARCP2-6H, unrelated cyclic peptide encoded by plasmid pARCP2-6H, used as negative control]",failed to inhibit tyrosinase
2,"cyclo-[Ser-Gly-Gly-Tyr-Leu-Pro-Pro-Leu] (SGGYLPPL; backbone cyclized; printed: Ser-Gly-Gly-Tyr-Leu-Pro-Pro-Leu) [pseudostellarin F, backbone cyclic peptide produced in E. coli from pARCP-p by intein-mediated cyclization]",dramatically reduced pigment formation
